According to PMC6755811:

Legend:
[1] = biological target: HER2-binding monomeric IgA2m(2) with Man3GlcNAc2 (MM) N-glycans (human); experiment: SPR; Biacore T200; IgA glycoforms captured on a Protein L chip, FcαRI glycoforms injected in single-cycle kinetics at five concentrations (31.5 to 500 nM); 1x PBS, 0.05% Tween, 0.1% BSA; 1:1 binding model; average of four independent experiments
[2] = biological target: HER2-binding monomeric IgA2m(2) with sialylated (NaNa) N-glycans (human); experiment: as above
[3] = biological target: HER2-binding monomeric IgA1 with terminally sialylated (NaNa) N-glycans (human); experiment: as above
[4] = biological target: HER2-binding monomeric IgA1 with Man3GlcNAc2 (MM) N-glycans (human); experiment: as above
[5] = biological target: HER2-binding monomeric IgA2m(2) with heterogeneous complex N-glycans (human); experiment: ITC; 10 μM IgA in the cell titrated with 160 μM FcαRI from the syringe; PBS pH 7.4, 25 °C, 19 injections
[6] = biological target: HEK293F-produced IgA1-Fc deletion protein lacking the Fab domain (human); experiment: SEC-MALS; SE-HPLC-MALS, Superdex 200 10/300 GL; IgA mixed with the receptor in a molar ratio of 1:4 starting from 25 μg of IgA
HEK293F-produced IgA1-Fc deletion protein lacking the Fab domain (human), sequence (P01876 1-364, stated change not applied): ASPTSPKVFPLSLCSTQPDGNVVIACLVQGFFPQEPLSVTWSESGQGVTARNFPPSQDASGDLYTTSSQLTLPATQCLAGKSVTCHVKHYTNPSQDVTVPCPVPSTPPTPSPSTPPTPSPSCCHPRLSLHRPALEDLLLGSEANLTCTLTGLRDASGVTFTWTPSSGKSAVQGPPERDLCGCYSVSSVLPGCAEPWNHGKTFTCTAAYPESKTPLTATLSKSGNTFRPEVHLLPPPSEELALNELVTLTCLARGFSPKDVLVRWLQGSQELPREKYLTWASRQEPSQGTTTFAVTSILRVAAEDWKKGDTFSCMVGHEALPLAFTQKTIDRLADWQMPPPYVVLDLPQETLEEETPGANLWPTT

[7] = biological target: HER2-binding monomeric IgA1 with mostly biantennary GlcNAc2Man3GlcNAc2 (GnGn) complex N-glycans (human); experiment: as above
[8] = biological target: HER2-binding monomeric IgA2m(2) with complex N-glycans (human); experiment: ITC; 10 μM IgA in the sample cell titrated with 160 μM FcαRI; 25 °C; PBS, pH 7.4
[9] = biological target: HER2-binding monomeric IgA1 with heterogeneous complex N-glycans, produced in HEK293F cells (human); experiment: as above

Kd [1] [nM]	koff [1] [s⁻¹]	kon [1] [M⁻¹ s⁻¹]	Kd [2] [nM]	koff [2] [s⁻¹]	kon [2] [M⁻¹ s⁻¹]	Kd [3] [nM]	koff [3] [s⁻¹]	kon [3] [M⁻¹ s⁻¹]	Kd [4] [nM]	koff [4] [s⁻¹]	kon [4] [M⁻¹ s⁻¹]	Kd [5] [nM]	stoichiometry N [5]	stoichiometry N (FcαRI per IgA1-Fc) [6]	stoichiometry N (FcαRI per IgA) [7]	stoichiometry N (FcαRI per IgA) [8]	stoichiometry N (FcαRI per IgA) [9]	Substance
														1	1	1.3	1.3	extracellular domain of the human FcαRI (CD89) with complex sialylated N-glycans (from UniProt P24071 22-227) (receptor)
																1.3	1.3	extracellular domain of the human FcαRI with oligomannosidic N-glycans (from UniProt P24071 22-227) (receptor)

Second part, the substance before the results:

Substance	Kd [1] [nM]	koff [1] [s⁻¹]	kon [1] [M⁻¹ s⁻¹]	Kd [2] [nM]	koff [2] [s⁻¹]	kon [2] [M⁻¹ s⁻¹]	Kd [3] [nM]	koff [3] [s⁻¹]	kon [3] [M⁻¹ s⁻¹]	Kd [4] [nM]	koff [4] [s⁻¹]	kon [4] [M⁻¹ s⁻¹]	Kd [5] [nM]	stoichiometry N [5]	stoichiometry N (FcαRI per IgA1-Fc) [6]	stoichiometry N (FcαRI per IgA) [7]	stoichiometry N (FcαRI per IgA) [8]	stoichiometry N (FcαRI per IgA) [9]
extracellular domain of human FcαRI (CD89) with complex sialylated N-glycans (from UniProt P24071 22-227) (receptor)	225	0.06	280000	206	0.06	300000	149	0.07	520000	187	0.07	350000	161	1.33				
extracellular domain of human FcαRI with oligomannosidic N-glycans (from UniProt P24071 22-227) (receptor)													90.7	1.36				
extracellular domain of human FcαRI with single GlcNAc residues at each N-glycosylation site (from UniProt P24071 22-227) (receptor)	26.2	0.03	1.2e+06	25.2	0.03	1.3e+06	25.8	0.06	2.3e+06	25.2	0.05	1.9e+06						
